Measurements: CN113278066A
Like-named read-outs stand apart in the source and are kept apart here.

How the values were obtained:
[1] = target: 非洲猪瘟病毒(ASFV)灭活抗原 (African swine fever virus)
[2] = target: 非洲猪瘟病毒(ASFV)灭活抗原 (African swine fever virus); remark: listed apart in the source
[3] = target: 非洲猪瘟病毒(ASFV)灭活抗原 (African swine fever virus); remark: listed apart in the source

B1: 全猪源非洲猪瘟病毒单克隆抗体 κ-9B (antibody, V domains shown)
VH: EGKLVESGGGLVQPGGSLRLSCVGSGFDFINTYMNWVRQAPGKGLEWLATISTKGISTYYADSVKGRFTISKDNSQNTADLLMRILRIEDTVRYFCAMSDSGGRNCVAGDSSCPHYYGMNLWGPGVEVVVSS
VL: AIQLTQSPASLAASLGDTVSVTCRASQSISSYLAWYQQQPGKAPKLLIVAASTLQSGVPSRFKGSGSGTDFTLTISGLQAEDVATYYCFQRNSVPWTFGQGTKLELKA
Binder B1 has an OD值 [1] of 1.91 OD450nm, an OD值 [2] of 0.733 OD450nm and an OD值 [3] of 0.717 OD450nm.
